{"source": "the supplement of paper PMC11316812", "key": {"hTERT-HMEC": {"system": "hTERT-HMEC", "experiment": "percentage of EdU-negative (G0-arrested) nuclei per well, 72 h; higher = more G0 arrest", "settings": "reference: sequence is the full UniProt precursor, the tested protein was the secreted form or ectodomain"}, "MCF7": {"system": "MCF7", "experiment": "percentage of EdU-negative (G0-arrested) nuclei per well, 72 h; higher = more G0 arrest", "settings": "reference: sequence is the full UniProt precursor, the tested protein was the secreted form or ectodomain"}, "[1]": {"settings": "protein concentration 0.0225 µM"}, "[2]": {"settings": "protein concentration 0.0173575 µM"}, "[3]": {"settings": "protein concentration 0.173575 µM"}, "[4]": {"settings": "protein concentration 0.0224225 µM"}, "[5]": {"settings": "protein concentration 0.0243425 µM"}, "[6]": {"settings": "protein concentration 0.028825 µM"}, "[7]": {"settings": "protein concentration 0.224225 µM"}, "[8]": {"settings": "protein concentration 0.243425 µM"}, "[9]": {"settings": "protein concentration 0.28825 µM"}, "[10]": {"settings": "protein concentration 0.0085 µM"}, "[11]": {"settings": "protein concentration 0.0301275 µM"}, "[12]": {"settings": "protein concentration 0.301275 µM"}}, "note": "± gives the standard deviation of the averaged measurements.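 Also: secreted proteins added to cultured cells, EdU pulse at the end, nuclei found by Hoechst imaging, EdU status from nuclear versus surrounding ring intensity ratio, PBS as neutral control.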"}
{"sequence": "MRAAGTLLAFCCLVLSTTGGPSPDTCSQDLNSRVKPGFPKTIKTNDPGVLQAARYSVEKFNNCTNDMFLFKESRITRALVQIVKGLKYMLEVEIGRTTCKKNQHLRLDDCDFQTNHTLKQTLSCYSEVWVVPWLQHFEVPVLRCH", "values": [{"measurement": "percentage of EdU-negative", "setting": "hTERT-HMEC; [1]", "result": "4.61 ± 0.72", "unit": "%"}, {"measurement": "percentage of EdU-negative", "setting": "hTERT-HMEC; protein concentration 0.225 µM", "result": "4.863 ± 0.024", "unit": "%"}, {"measurement": "percentage of EdU-negative", "setting": "MCF7; [1]", "result": "27.2 ± 0.74", "unit": "%"}, {"measurement": "percentage of EdU-negative", "setting": "MCF7; protein concentration 0.225 µM", "result": "27.2 ± 1.1", "unit": "%"}]}
{"sequence": "MRAAPLLLARAASLSLGFLFLLFFWLDRSVLAKELKFVTLVFRHGDRSPIDTFPTDPIKESSWPQGFGQLTQLGMEQHYELGEYIRKRYRKFLNESYKHEQVYIRSTDVDRTLMSAMTNLAALFPPEGVSIWNPILLWQPIPVHTVPLSEDQLLYLPFRNCPRFQELESETLKSEEFQKRLHPYKDFIATLGKLSGLHGQDLFGIWSKVYDPLYCESVHNFTLPSWATEDTMTKLRELSELSLLSLYGIHKQKEKSRLQGGVLVNEILNHMKRATQIPSYKKLIMYSAHDTTVSGLQMALDVYNGLLPPYASCHLTELYFEKGEYFVEMYYRNETQHEPYPLMLPGCSPSCPLERFAELVGPVIPQDWSTECMTTNSHQGTEDSTD", "values": [{"measurement": "percentage of EdU-negative", "setting": "hTERT-HMEC; [2]", "result": "5.15 ± 0.62", "unit": "%"}, {"measurement": "percentage of EdU-negative", "setting": "hTERT-HMEC; [3]", "result": "5.55 ± 0.26", "unit": "%"}, {"measurement": "percentage of EdU-negative", "setting": "MCF7; [2]", "result": "26.5 ± 0.46", "unit": "%"}, {"measurement": "percentage of EdU-negative", "setting": "MCF7; [3]", "result": "27.8 ± 1.6", "unit": "%"}]}
{"sequence": "MRACISLVLAVLCGLAWAGKIESCASRCNEKFNRDAACQCDRRCLWHGNCCEDYEHLCTEDHKESEPLPQLEEETEEALASNLYSAPTSCQGRCYEAFDKHHQCHCNARCQEFGNCCKDFESLCSDHEVSHSSDAITKEEIQSISEKIYRADTNKAQKEDIVLNSQNCISPSETRNQVDRCPKPLFTYVNEKLFSKPTYAAFINLLNNYQRATGHGEHFSAQELAEQDAFLREIMKTAVMKELYSFLHHQNRYGSEQEFVDDLKNMWFGLYSRGNEEGDSSGFEHVFSGEVKKGKVTGFHNWIRFYLEEKEGLVDYYSHIYDGPWDSYPDVLAMQFNWDGYYKEVGSAFIGSSPEFEFALYSLCFIARPGKVCQLSLGGYPLAVRTYTWDKSTYGNGKKYIATAYIVSST", "values": [{"measurement": "percentage of EdU-negative", "setting": "hTERT-HMEC; [4]", "result": "5.37 ± 0.81", "unit": "%"}, {"measurement": "percentage of EdU-negative", "setting": "hTERT-HMEC; [5]", "result": "4.65 ± 0.23", "unit": "%"}, {"measurement": "percentage of EdU-negative", "setting": "hTERT-HMEC; [6]", "result": "5.03 ± 0.15", "unit": "%"}, {"measurement": "percentage of EdU-negative", "setting": "hTERT-HMEC; [7]", "result": "5.94 ± 0.48", "unit": "%"}, {"measurement": "percentage of EdU-negative", "setting": "hTERT-HMEC; [8]", "result": "8.43 ± 1.2", "unit": "%"}, {"measurement": "percentage of EdU-negative", "setting": "hTERT-HMEC; [9]", "result": "6.74 ± 0.95", "unit": "%"}, {"measurement": "percentage of EdU-negative", "setting": "MCF7; [4]", "result": "25.11 ± 0.21", "unit": "%"}, {"measurement": "percentage of EdU-negative", "setting": "MCF7; [5]", "result": "25.2 ± 1.4", "unit": "%"}, {"measurement": "percentage of EdU-negative", "setting": "MCF7; [6]", "result": "24.16 ± 0.045", "unit": "%"}, {"measurement": "percentage of EdU-negative", "setting": "MCF7; [7]", "result": "28.6 ± 2.5", "unit": "%"}, {"measurement": "percentage of EdU-negative", "setting": "MCF7; [8]", "result": "27.3 ± 0.39", "unit": "%"}, {"measurement": "percentage of EdU-negative", "setting": "MCF7; [9]", "result": "27.382 ± 0.0011", "unit": "%"}]}
{"sequence": "MRALEGPGLSLLCLVLALPALLPVPAVRGVAETPTYPWRDAETGERLVCAQCPPGTFVQRPCRRDSPTTCGPCPPRHYTQFWNYLERCRYCNVLCGEREEEARACHATHNRACRCRTGFFAHAGFCLEHASCPPGAGVIAPGTPSQNTQCQPCPPGTFSASSSSSEQCQPHRNCTALGLALNVPGSSSHDTLCTSCTGFPLSTRVPGAEECERAVIDFVAFQDISIKRLQRLLQALEAPEGWGPTPRAGRAALQLKLRRRLTELLGAQDGALLVRLLQALRVARMPGLERSVRERFLPVH", "values": [{"measurement": "percentage of EdU-negative", "setting": "hTERT-HMEC; [10]", "result": "4.68 ± 0.12", "unit": "%"}, {"measurement": "percentage of EdU-negative", "setting": "hTERT-HMEC; protein concentration 0.085 µM", "result": "8.46 ± 1.8", "unit": "%"}, {"measurement": "percentage of EdU-negative", "setting": "MCF7; [10]", "result": "22.9 ± 1.3", "unit": "%"}, {"measurement": "percentage of EdU-negative", "setting": "MCF7; protein concentration 0.085 µM", "result": "27.9 ± 2.1", "unit": "%"}]}
{"sequence": "MRALLLLGFLLVSLESTLSIPPWEAPKEHKYKAEEHTVVLTVTGEPCHFPFQYHRQLYHKCTHKGRPGPQPWCATTPNFDQDQRWGYCLEPKKVKDHCSKHSPCQKGGTCVNMPSGPHCLCPQHLTGNHCQKEKCFEPQLLRFFHKNEIWYRTEQAAVARCQCKGPDAHCQRLASQACRTNPCLHGGRCLEVEGHRLCHCPVGYTGAFCDVDTKASCYDGRGLSYRGLARTTLSGAPCQPWASEATYRNVTAEQARNWGLGGHAFCRNPDNDIRPWCFVLNRDRLSWEYCDLAQCQTPTQAAPPTPVSPRLHVPLMPAQPAPPKPQPTTRTPPQSQTPGALPAKREQPPSLTRNGPLSCGQRLRKSLSSMTRVVGGLVALRGAHPYIAALYWGHSFCAGSLIAPCWVLTAAHCLQDRPAPEDLTVVLGQERRNHSCEPCQTLAVRSYRLHEAFSPVSYQHDLALLRLQEDADGSCALLSPYVQPVCLPSGAARPSETTLCQVAGWGHQFEGAEEYASFLQEAQVPFLSLERCSAPDVHGSSILPGMLCAGFLEGGTDACQGDSGGPLVCEDQAAERRLTLQGIISWGSGCGDRNKPGVYTDVAYYLAWIREHTVS", "values": [{"measurement": "percentage of EdU-negative", "setting": "hTERT-HMEC; protein concentration 0.009 µM", "result": "5.23 ± 0.56", "unit": "%"}, {"measurement": "percentage of EdU-negative", "setting": "hTERT-HMEC; protein concentration 0.09 µM", "result": "49.1 ± 0.6", "unit": "%"}, {"measurement": "percentage of EdU-negative", "setting": "MCF7; protein concentration 0.009 µM", "result": "27.06 ± 0.031", "unit": "%"}, {"measurement": "percentage of EdU-negative", "setting": "MCF7; protein concentration 0.09 µM", "result": "27.973 ± 0.024", "unit": "%"}]}
{"sequence": "MRALRDRAGLLLCVLLLAALLEAALGLPVKKPRLRGPRPGSLTRLAEVSASPDPRPLKEEEEAPLLPRTHLQAEPHQHGCWTVTEPAAMTPGNATPPRTPEVTPLRLELQKLPGLANTTLSTPNPDTQASASPDPRPLREEEEARLLPRTHLQAELHQHGCWTVTEPAALTPGNATPPRTQEVTPLLLELQKLPELVHATLSTPNPDNQVTIKVVEDPQAEVSIDLLAEPSNPPPQDTLSWLPALWSFLWGDYKGEEKDRAPGEKGEEKEEDEDYPSEDIEGEDQEDKEEDEEEQALWFNGTTDNWDQGWLAPGDWVFKDSVSYDYEPQKEWSPWSPCSGNCSTGKQQRTRPCGYGCTATETRTCDLPSCPGTEDKDTLGLPSEEWKLLARNATDMHDQDVDSCEKWLNCKSDFLIKYLSQMLRDLPSCPCAYPLEAMDSPVSLQDEHQGRSFRWRDASGPRERLDIYQPTARFCLRSMLSGESSTLAAQHCCYDEDSRLLTRGKGAGMPNLISTDFSPKLHFKFDTTPWILCKGDWSRLHAVLPPNNGRACTDNPLEEEYLAQLQEAKEY [Q6H9L7]", "values": [{"measurement": "percentage of EdU-negative", "setting": "hTERT-HMEC; [11]", "result": "5.26 ± 0.1", "unit": "%"}, {"measurement": "percentage of EdU-negative", "setting": "hTERT-HMEC; [12]", "result": "5.07 ± 0.18", "unit": "%"}, {"measurement": "percentage of EdU-negative", "setting": "MCF7; [11]", "result": "24.4 ± 0.93", "unit": "%"}, {"measurement": "percentage of EdU-negative", "setting": "MCF7; [12]", "result": "28.4 ± 1.3", "unit": "%"}]}
